T1: CD38 on Raji cells (CD38 positive cells) (UniProt P28907 1-300, limits assumed)
T1 sequence (looked up): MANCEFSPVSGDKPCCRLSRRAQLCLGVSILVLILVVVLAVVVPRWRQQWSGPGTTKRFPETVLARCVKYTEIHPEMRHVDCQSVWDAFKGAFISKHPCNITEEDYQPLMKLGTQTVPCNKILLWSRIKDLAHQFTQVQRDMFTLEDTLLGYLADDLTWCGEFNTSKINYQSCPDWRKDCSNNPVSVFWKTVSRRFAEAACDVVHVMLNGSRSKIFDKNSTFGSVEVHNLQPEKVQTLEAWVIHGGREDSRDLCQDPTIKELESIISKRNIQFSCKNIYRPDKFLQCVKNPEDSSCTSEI

T2: CD38-His (UniProt P28907 43-300)
T2 construct: also called target antigen CD38; not shown: His tag
T2 sequence (looked up): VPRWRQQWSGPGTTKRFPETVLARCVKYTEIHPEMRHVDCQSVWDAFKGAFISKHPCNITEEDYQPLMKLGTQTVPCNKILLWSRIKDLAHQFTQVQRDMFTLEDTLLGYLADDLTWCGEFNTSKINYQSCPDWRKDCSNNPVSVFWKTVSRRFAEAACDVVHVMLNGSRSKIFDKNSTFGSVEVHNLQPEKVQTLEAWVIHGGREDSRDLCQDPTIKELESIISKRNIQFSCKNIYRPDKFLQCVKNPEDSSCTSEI

B1: fusion protein SG3847L1 (bispecific antibody, human IgG1, kappa)
heavy: not shown
light: EIVMTQSPASLSASLGQRATISCRASSSVSSSAFSYVHWYQQKSGQPPKLLIYLASNLESGVPARFSGSGSGTDFTLTIHPVESEDVATYYCHHSRELPFTFGSGTKLEIKRTVAAPSVFIFPPSDEQLKSGTASVVCLLNNFYPREAKVQWKVDNALQSGNSQESVTEQDSKDSTYSLSSTLTLSKADYEKHKVYACEVTHQGLSSPVTKSFNRGEC
notes: First polypeptide chain = SG003 light chain
B2: fusion protein SG3847L2 (bispecific antibody, human IgG1, kappa)
heavy: not shown
light: B1 light
notes: as for B1
B3: anti-CD38 humanized antibody SG003 (antibody, human IgG1, kappa, V domains shown)
VH: QVQLLESGGGLVQPGGSLKLSCVASGFDFSLYWMNWVRQAPGKGLEWIGKINPDSSTINYTPSLKDKFFISRDNAKNTLYLQMTKVRSEDTALYYCARLWIATGGFDYWGQGTTLTVSS
VL: EIVMTQSPASLSASLGQRATISCRASSSVSSSAFSYVHWYQQKSGQPPKLLIYLASNLESGVPARFSGSGSGTDFTLTIHPVESEDVATYYCHHSRELPFTFGSGTKLEIKR
notes: also called SG003 antibody

How the values were obtained:
[1] = molecular target: T1, CD38 on Raji cells (CD38 positive cells); experiment: cell-based or functional assay
CD38-His [2] = molecular target: T2, CD38-His; experiment: bridging ELISA: CD38-His coated, fusion protein titrated, detected with Biotin-Fc-CD47 and streptavidin-HRP (simultaneous binding of CD38 and CD47)
Procedure: (1) Referring to the principle of FIG. 5, with the anti-CD38 humanized antibody SG003 as the control, the biological activities of the fusion proteins SG3847L1 and SG3847L2 to simultaneously bind two antigens CD38 and CD47 were analyzed by ELISA.
Target antigen CD38-His (1 μg/ml) was coated on ELISA bars, overnight at 4° C.; after washing with PBST, 10% of fetal calf serum was added and blocked at 37° C. for 1 hour; different concentrations of SG003 antibody, SG3847L1 or SG3847L2 fusion protein were added and reacted at 37° C. for 1 hour; after washing with PBST, biotin-labeled CD47 (Biotin-Fc-CD47) was added and reacted at 37° C. for 30 minutes, and washed with PBST for 5 times; horseradish peroxidase-labeled avidin (Streptavidin-HRP, Jiaxuan Bio.) was added and reacted at 37° C. for 30 minutes, and washed with PBST for 5 times; each well was added with 100 μl TMB (eBioscience), placed in dark at room temperature (20±5° C.) for 1-2 min; then each well was added with 100 μl 2N H₂SO₄ stop solution to terminate the reaction of the substrate, OD values were read at 450 nm on the microplate reader, and the capacities of the fusion proteins to simultaneously bind the target antigens CD38 and CD 47 were analyzed.

CD38-His [3] = molecular target: T2, CD38-His; experiment: ELISA, CD38-His coated at 1 µg/ml, anti-human IgG HRP detection
Procedure: (1) With SG003 as the control, the binding activity between the fusion protein and CD38 was evaluated by ELISA.
Target antigen CD38-His (1 μg/ml) was coated on ELISA bars, overnight at 4° C.; after washing with PBST, 10% of fetal calf serum was added and blocked at 37° C. for 1 hour; different concentrations of SG003 antibody, SG3847L1 or SG3847L2 fusion protein were added and reacted at 37° C. for 1 hour; after washing with PBST, horseradish peroxidase-labeled goat anti-human IgG secondary antibodies (Goat Anti human IgG HRP, Thermo Fisher Scientific) were added and reacted at 37° C. for 30 minutes, and washed with PBST for 5 times; each well was added with 100 μl TMB (eBioscience), placed in dark at room temperature (20±5° C.) for 1-2 min; then each well was added with 100 μl 2N H₂SO₄ stop solution to terminate the reaction of the substrate, OD values were read at 450 nm on the microplate reader, and the capacity of the fusion protein to bind the target antigen CD38 was analyzed.

CD47-His = molecular target: T3, CD47-His (UniProt Q08722 19-141, limits assumed); experiment: ELISA, CD47-His coated at 1 µg/ml, anti-human IgG HRP detection
T3 construct: also called target antigen CD47; not shown: His tag
Procedure: Target antigen CD47-His (1 μg/ml) was coated on ELISA bars, overnight at 4° C.; after washing with PBST, 10% of fetal calf serum was added and blocked at 37° C. for 1 hour; different concentrations of SS002M91, SG3847L1 or SG3847L2 was added and reacted at 37° C. for 1 hour; after washing with PBST, horseradish peroxidase-labeled goat anti-human IgG secondary antibodies (Goat Anti human IgG HRP, Thermo Fisher Scientific) were added and reacted at 37° C. for 30 minutes, and washed with PBST for 5 times; each well was added with […] (eBioscience), placed in dark at room temperature (20±5° C.) for 1-2 min; then each well was added with 100 μl 2N H₂SO₄ stop solution to terminate the reaction of the substrate, OD values were read at 450 nm on the microplate reader, and the capacity of the fusion protein to bind the target antigen CD47 was analyzed.

[4] = molecular target: T4, biotin-labeled CD47 (Biotin-Fc-CD47) (UniProt Q08722 19-141, limits assumed, biotin-labeled); experiment: competition ELISA: SIRPα-His coated at 1 µg/ml, Biotin-Fc-CD47 at 2 µg/ml; competitor SIRPα-His
T4 construct: not shown: Fc part
Procedure: SIRPα-His was coated on the assay plate at 1 μg/ml overnight at 4° C.; after washing with PBST, 10% of fetal calf serum was added and blocked at 37° C. for 1 hour; SS002M91, SG3847L1 or SG3847L2 was gradiently diluted respectively with 10% of fetal bovine blood, and Biotin-Fc-CD47 was added into the samples until a final concentration of 2 μg/ml, pre-incubated at 37° C. for 30 min, as the primary antibody; after the assay plate was washed with PBST, the primary antibody was added and incubated at 37° C. for 1 hour; after washing with PBST for 5 times, horseradish peroxidase-labeled avidin (Streptavidin-HRP, Jiaxuan Bio.) was added and incubated at 37° C. for 30 minutes; after washing with PBST for 5 times, each well was added with 100 μl TMB (eBioscience), placed in dark at room temperature (20±5° C.) for 1-5 min; then each well was added with 100 μl 2N H₂SO₄ stop solution to terminate the reaction of the substrate, OD values were read at 450 nm on the microplate reader, and the blocking effects of SS002M91, SG3847L1, SG3847L2 on CD47/SIRPα were analyzed.

T3 sequence (Q08722 19-141 limits assumed): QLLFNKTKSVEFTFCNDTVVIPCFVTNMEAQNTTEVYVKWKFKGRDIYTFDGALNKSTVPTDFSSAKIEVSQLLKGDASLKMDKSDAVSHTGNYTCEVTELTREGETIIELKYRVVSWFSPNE
T4 sequence (Q08722 19-141 limits assumed): as above

Binder	ADCC EC50 (specific kill rate, LDH release; Raji target cells, NK92MI-CD16a effector cells) [1] [pM]	EC50 (CD38-His [2]) [pM]	EC50 (CD38-His [3]) [pM]	EC50 (CD47-His) [pM]	IC50 [4] [pM]
B1	14	20	175	114	46800
B2	13	24	149	91	78800
B3	67	–	133	–	–

Source: patent publication US20210317230A1 (HANGZHOU SUMGEN BIOTECH, published 2021)
